The values that follow are results of earlier work, collected in paper PMC10342495.

This data set has as its target IL-18 (Homo sapiens) (UniProt Q14116).

Chain of IL-18 (Homo sapiens) (Q14116 37-193): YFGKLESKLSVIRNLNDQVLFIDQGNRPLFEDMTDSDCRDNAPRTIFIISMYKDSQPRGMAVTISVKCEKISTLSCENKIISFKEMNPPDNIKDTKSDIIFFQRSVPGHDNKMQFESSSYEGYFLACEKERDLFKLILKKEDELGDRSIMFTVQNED
Chain of IL-18BP (O95998 31-194): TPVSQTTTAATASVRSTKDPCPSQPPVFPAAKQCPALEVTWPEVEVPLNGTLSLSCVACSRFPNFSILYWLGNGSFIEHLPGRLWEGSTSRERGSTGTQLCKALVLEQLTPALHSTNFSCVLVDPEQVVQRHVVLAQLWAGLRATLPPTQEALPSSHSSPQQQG

For orientation: Kd means the equilibrium constant for the complex coming apart. Regarding IL-18BP (from UniProt O95998), the Kd is 0.4 nM.
